From patent US20220118080A1 (MAYO FOUNDATION FOR MEDICAL EDUCATION AND RESEARCH, published 2022)
Like-named read-outs stand apart in the source and are kept apart here.

B2: recombinant soluble MeV-H Δ8 (other)
chain: RLHRAAIYTAEIHKSLSTNLDVTNSIEHQVKDVLTPLFKIIGDEVGLRTPQRFTDLVKFISDKIKFLNPDREYDFRDLTWCINPPERIKLNYDQYCADVAAEELMNALVNSTLLETRTTNQFLAVSKGNCPGPTTIRGQFSNMSLSLLDLYLSRGYNVSSIVTMTSQGMYGGTYLVGKPDLNSKGSELSQPSMYRVFEVGVIRNPGLGAPVFHMTNYFEQPISKDLSNCMVALGELKLAALCHRGDSITIPCRGSGKGVSFQLVKLGVWKSPTDMHSWVPLSTDDPVIDRLYLSSHRGVITDNQANWAVPTTRTDDKLQKETCFQQACKGKIQALCENLEWAPLKDSRIPSYGVLSVNLSLAAEPKIKIASGFGPLITHGSGMDLYKSNHNNVYWLTIPPMKNLALGVINTLKWIPRLKVSPYLFTVPIEEADEDCRAPTYLPAEVTGDVKLSSNLVILPGQDLQYVLATYDTSGVEHAVVYYVYSPGGSFSYVYPFRLPIKGTPIELQVECFTWAQRLWCRHFCVLADSESGGHLTHSGMVGMEVSCTVNREDEANRR
B3: CD46-Fc (Fc fusion)
chain: CEEPPTFEAMELIGKPKPYYEIGERVDYKCKKGYFYIPPLATHTICDRNHTWLPVSDDACYRETCPYIRDPLNGQAVPANGTYEFGYQMHFICNEGYYLIGEEILYCELKGSVAIWSGKPPICEKVLCTPPPKIKNGKHTFSEVEVFEYLDAVTYSCDPAPGPDPFSLIGESTIYCGDNSVWSRAAPECKVVKCRFPVVENGKQISGFGKKFYYKATVMFECDKGFYLDGSDTIVCDSNSTWDPPVPKCLKVLPPSSTKPPALSHSVSTSSTTKSPASSASGPRPTYKPPVSNY
notes: range 35-328

How the values were obtained:
[1] = target: recombinant soluble MeV-H A (vaccine strain) (measles virus)
[2] = target: recombinant soluble MeV-H A (vaccine strain) (measles virus); experiment: ELISA, receptor-Fc titrated on plastic-bound MeV-H; one-site fit
[3] = target: recombinant soluble MeV-H A (vaccine strain) (measles virus); experiment: ELISA, receptor-Fc titrated on plastic-bound MeV-H; one-site fit, apparent Kd
[4] = target: T1, SLAM-Fc (UniProt Q13291 21-237); experiment: ELISA, receptor-Fc on plastic-bound MeV-H
T1 sequence: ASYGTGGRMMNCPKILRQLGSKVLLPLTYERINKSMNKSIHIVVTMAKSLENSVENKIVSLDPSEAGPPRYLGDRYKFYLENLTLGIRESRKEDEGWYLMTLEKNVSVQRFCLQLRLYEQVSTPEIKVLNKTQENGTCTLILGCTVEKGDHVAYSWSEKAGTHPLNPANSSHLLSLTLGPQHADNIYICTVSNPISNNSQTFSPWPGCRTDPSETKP

[5] = target: B3; experiment: ELISA, receptor-Fc titrated on plastic-bound MeV-H; one-site fit, apparent Kd (half-saturating concentration)
[6] = target: B2; experiment: ELISA, receptor-Fc titrated on plastic-bound MeV-H
[7] = target: T1, SLAM-Fc; experiment: ELISA, receptor-Fc titrated on plastic-bound MeV-H; one-site fit, apparent Kd

CD46-Fc (from UniProt P15529 35-328) (Fc fusion)
Kd [1]: 819 µM

nectin-4-Fc (from UniProt Q96NY8 32-349) (Fc fusion)
Bmax [1]: 1.56

B1: SLAM-Fc (Fc fusion)
chain: ASYGTGGRMMNCPKILRQLGSKVLLPLTYERINKSMNKSIHIVVTMAKSLENSVENKIVSLDPSEAGPPRYLGDRYKFYLENLTLGIRESRKEDEGWYLMTLEKNVSVQRFCLQLRLYEQVSTPEIKVLNKTQENGTCTLILGCTVEKGDHVAYSWSEKAGTHPLNPANSSHLLSLTLGPQHADNIYICTVSNPISNNSQTFSPWPGCRTDPSETKP
Bmax [2]: 2.09
Kd [3]: 2680 nM

B2
binding result [4]: no binding
Kd [5]: 0.19 nM

B3
fold better binding than MeV-H A and H1 [6]: ~4000 fold

B4: recombinant soluble MeV-H H1 (other)
chain: RLHRAAIYTAEIHKSLSTNLDVTNSIEHQVKDVLTPLFKIIGDEVGLRTPQRFTDLVKFISDKIKFLNPDREYDFRDLTWCINPPERIKLNYDQYCADVAAEELMNALVNSTLLETRTTNQFLAVSKGNCSGPTTIRGQFSNMSLSLLDLYLSRGYNVSSIVTMTSQGMYGGTYLVEKPNLNSKGSELSQLSMYRVFEVGVIRNPGLGAPVFHMTNYFEQPISKDLSNCMVALGELKLAALCHGGDSITIPYQGSGKGVSFQLVKLGVWKSPTDMHSWVPLSTDDPVIDRLYLSSHRGVITDNQANWAVPTTRTDDKLRMETCFQQACKGKIQALCENLEWAPLKDSRIPSYGVLSVDLSLAAEPKIKIASGFGPLITHGSGMDLYKSNHNNVYWLTIPPMKNLALGVINTLEWIPRLKVSPNLFTVPIKEAGEDCHAPTYLPAEVDGDVKLSSNLVILPGQDLQYVLATYDTSRVEHAVVYYVYSPSRSFSYFYPFRLPIKGTPIELQVECFTWAQRLWCRHFCVLADSESGGHLTHSGMVGMEVSCTVNREDEANRR
Kd [7]: 10.4 µM
